Results on 32 substances are retold here after US11135246B2, “Peptides and combination of peptides for use in immunotherapy against leukemias and other cancers” (Immatics Biotechnologies GmbH, priority 2017, dated 2021).

One assay addresses HLA-A*24:02 (Homo sapiens, UniProt P04439, D101N/D140Y/D185E/E176V/E190D/F33S/G103R/G107R/I119L/I121M/I306V/K335N/L105A/L180Q/L300P/N151K/N90K/Q86E/Q94H/R106L/R138H/R89G/T104I/T345S/V100E/W191G/Y123F). The assay can be described thus: MHC binding assay, UV-ligand exchange with β2m ELISA, HLA-A*24:02. Conditions: peptide exchange yield. The source says:
(§1) Candidate peptides for T cell based therapies according to the present invention were further tested for their MHC binding capacity (affinity). The individual peptide-MHC complexes were produced by UV-ligand exchange, where a UV-sensitive peptide is cleaved upon UV-irradiation, and exchanged with the peptide of interest as analyzed. Only peptide candidates that can effectively bind and stabilize the peptide-receptive MHC molecules prevent dissociation of the MHC complexes. To determine the yield of the exchange reaction, an ELISA was performed based on the detection of the light chain (β2m) of stabilized MHC complexes. The assay was performed as generally described in Rodenko et al. (Rodenko et al., 2006).
(§2) 96 well MAXISorp plates (NUNC) were coated over night with 2 ug/ml streptavidin in PBS at room temperature, washed 4× and blocked for 1 h at 37° C. in 2% BSA containing blocking buffer. Refolded HLA-A*02:01/MLA-001 monomers served as standards, covering the range of 15-500 ng/ml. Peptide-MHC monomers of the UV-exchange reaction were diluted 100-fold in blocking buffer. Samples were incubated for 1 h at 37° C., washed four times, incubated with 2 ug/ml HRP conjugated anti-β2m for 1 h at 37° C., washed again and detected with TMB solution that is stopped with […]. Absorption was measured at 450 nm. Candidate peptides that show a high exchange yield (preferably higher than 50%, most preferred higher than 75%) are generally preferred for a generation and production of antibodies or fragments thereof, and/or T cell receptors or fragments thereof, as they show sufficient avidity to the MHC molecules and prevent dissociation of the MHC complexes.
A general note: An ELISA detects its analyte on a solid surface through an enzyme-linked reagent.

The next assay deals with CD8+ T cells. Description: In vitro T-cell priming assay (immunogenicity): repeated stimulation of CD8+ T cells with aAPCs loaded with peptide/MHC complexes and anti-CD28, pMHC multimer readout. In kind it is cell-based, human. Conditions: Table 10a; healthy donors; three stimulation cycles; HLA-A*02 (278), HLA-A*24 (279). On the procedure: In order to obtain information regarding the immunogenicity of the TUMAPs of the present invention, the inventors performed investigations using an in vitro T-cell priming assay based on repeated stimulations of CD8+ T cells with artificial antigen presenting cells (aAPCs) loaded with peptide/MHC complexes and anti-CD28 antibody. […]
Generation of pMHC/anti-CD28 coated beads, T-cell stimulations and readout was performed in a highly defined in vitro system using four different pMHC molecules per stimulation condition and 8 different pMHC molecules per readout condition. […]
Stimulations were initiated in 96-well plates by co-incubating […] CD8+ T cells with 2×10^5 washed coated beads in 200 μl TCM supplemented with 5 ng/ml IL-12 (PromoCell) for 3 days at 37° C. […] For the pMHC multimer readout using 8 different pMHC molecules per condition, a two-dimensional combinatorial coding approach was used as previously described (Andersen et al., 2012) with minor modifications encompassing coupling to 5 different fluorochromes. […] Peptide specific cells were calculated as percentage of total CD8+ cells. […] In vitro priming of specific multimer+CD8+ lymphocytes was detected by comparing to negative control stimulations.

A further assay has as its target HLA-A*02:01 (Homo sapiens, UniProt P04439, D140Y/D185E/D98H/E176V/E277Q/G131W/G231S/I119V/I121R/I166T/I218V/L300P/L318F/N151K/N90K/P208A/P217A/Q86G/Q94H/R138H/R169H/T345S). The assay can be described thus: MHC binding assay, UV-ligand exchange with β2m ELISA, HLA-A*02:01. Conditions: peptide exchange yield.
Source text: as §1, §2

Consider “71 (RYLGKNWSF; listed as Homo sapiens) [compound 71]”, for which the Peptide exchange result in the assay with HLA-A*24:02 is ““++++” (>75% = ++++)”.
On the same count and under the same terms, then “55 (IFVARLYYF; listed as Homo sapiens) [compound 55]”, with ““++++” (>75% = ++++)”; and “70 (LYSDIGHLL; listed as Homo sapiens) [compound 70]”, with ““+++” (>50 = +++)”.
Same read-out and setting: then “75 (RFYLLTEHF; listed as Homo sapiens) [compound 75]”, with ““+++” (>50 = +++)”.
Still for that read-out and setting: then “64 (SFQSKATVF; listed as Homo sapiens) [compound 64]”, with ““++” (>20% = ++)”; and “58 (KYLADLPTL; listed as Homo sapiens) [compound 58]”, with ““++++” (>75% = ++++)”; and “68 (LYQDRFDYL; listed as Homo sapiens) [compound 68]”, with ““++++” (>75% = ++++)”.
In the case of “73 (TYPQLEGFKF; listed as Homo sapiens) [compound 73]”, the Peptide exchange result with HLA-A*24:02 is ““++++” (>75% = ++++)”.
Turning to “278 (YLDRKLLTL; listed as Homo sapiens) [compound 278]”, the “Wells positive [%]” value with CD8+ T cells is given as “++++ (>=70% = ++++)”.
As to “74 (SYADNILSF; listed as Homo sapiens) [compound 74]”, in the assay with HLA-A*24:02, the Peptide exchange result is ““++++” (>75% = ++++)”.
Still for that read-out and setting: then “72 (TYVENLRLL; listed as Homo sapiens) [compound 72]”, with ““+++” (>50 = +++)”; and “56 (KYSSGFRNI; listed as Homo sapiens) [compound 56]”, with ““+++” (>50 = +++)”; and “63 (IYFSNTHFF; listed as Homo sapiens) [compound 63]”, with ““+++” (>50 = +++)”.
Same read-out and setting: then “222 (RYLDEINLL; listed as Homo sapiens) [compound 222]”, with ““+++” (>50 = +++)”.
As to “57 (RFPPTPPLF; listed as Homo sapiens) [compound 57]”, the Peptide exchange entry with HLA-A*24:02 is ““++++” (>75% = ++++)”.
As for “62 (YYLSHLERI; listed as Homo sapiens) [compound 62]”, in the assay with HLA-A*24:02, the Peptide exchange result is given as ““++++” (>75% = ++++)”.
For “19 (SLFEGIYTI; listed as Homo sapiens) [compound 19]”, in the assay with HLA-A*02:01, the Peptide exchange result was ““++++” (>75% = ++++)”.
Still for that read-out and setting: then “206 (SLMDLQERL; listed as Homo sapiens) [compound 206]”, with ““+++” (>50 = +++)”; and “201 (ILAAVETRL; listed as Homo sapiens) [compound 201]”, with ““+++” (>50 = +++)”.
“204 (FLLPKVQSIQL; listed as Homo sapiens) [compound 204]”: the Peptide exchange result with HLA-A*02:01 is reported as ““+++” (>50 = +++)”.
“199 (AMPDSPAEV; listed as Homo sapiens) [compound 199]”: the Peptide exchange entry with HLA-A*02:01 is ““++++” (>75% = ++++)”.
On to “67 (VFLPSEGFNF; listed as Homo sapiens) [compound 67]”, for which the Peptide exchange result with HLA-A*24:02 was ““+++” (>50 = +++)”.
As to “17 (KAYNRVIFV; listed as Homo sapiens) [compound 17]”, the Peptide exchange entry in the assay with HLA-A*02:01 was ““+++” (>50 = +++)”.
With “24 (KLGPVAVSI; listed as Homo sapiens) [compound 24]”, in the assay with HLA-A*02:01, the Peptide exchange entry is on record as ““++++” (>75% = ++++)”.
As for “279 (LYIDRPLPYL; listed as Homo sapiens) [compound 279]”, the “Wells positive [%]” value in the assay with CD8+ T cells is reported as “++++ (>=70% = ++++)”.
For the substance “203 (FLLPKVQSI; listed as Homo sapiens) [compound 203]”, the Peptide exchange entry in the assay with HLA-A*02:01 is ““++++” (>75% = ++++)”.
Turning to “69 (EYNTIKDKF; listed as Homo sapiens) [compound 69]”, the Peptide exchange entry in the assay with HLA-A*24:02 was ““+++” (>50 = +++)”.
As for “53 (KYIEYYLVL; listed as Homo sapiens) [compound 53]”, the Peptide exchange entry in the assay with HLA-A*24:02 is given as ““++++” (>75% = ++++)”.
For the substance “200 (VMLQINPKL; listed as Homo sapiens) [compound 200]”, the Peptide exchange result in the assay with HLA-A*02:01 is listed as ““+++” (>50 = +++)”.
Take “61 (IFKEHNFSF; listed as Homo sapiens) [compound 61]”: in the assay with HLA-A*24:02, the Peptide exchange entry was ““++++” (>75% = ++++)”.
“27 (RLIAKEMNI; listed as Homo sapiens) [compound 27]”: the Peptide exchange entry with HLA-A*02:01 is listed as ““++++” (>75% = ++++)”.
As for “205 (FLINTNSEL; listed as Homo sapiens) [compound 205]”, in the assay with HLA-A*02:01, the Peptide exchange entry is given as ““++++” (>75% = ++++)”.
